This note sets out measurements from US20260327291 (published 2026).

The term Kd denotes the equilibrium constant for the complex coming apart. Low readings indicate tighter binding, high ones weaker binding.

The test addresses 2019-nCoV N protein (SARS-CoV-2, UniProt P0DTC9). Nature of the test: BLI.

B1: WT anti-N antibody (antibody, V domains shown)
VH: QIQLVQSGPELKKPGETVKISCKASGFTFTDYAMNWVKQAPGKGLKWMGWLNTYSGEPTYAEDFKGRFAFSLETSASTAYLQINNLKNEDTATYFCARTAILRSYFDYWGQGTTLTVSS
VL: DIVMTQSHKFMSTSVGDRVSITCKASEDLSTALAWCQQKPGQSPKLLIYWGSTRHSGVPDRFTGIRSGTDYTLTISSVQAEDLALYYCQQHWSTPLTFGAGTKLELKR
B1 showed a dissociation constant Kd of 7.25 nM.
